Biological target: purified human TNC protein (human) (UniProt P24821)
Assay: BLI

Row | Kd [pM] | Binder
1 | < 1 | NJT3 (VHH, labelled with Texas Red via sortase-mediated tagging in the ex vivo imaging assay) VHH: QVQLVETGGGLAQAGGSLRLSCAASGRTLSGYAMGWFRQAPGKEREFVAAISWSGRNTYYDYTVQGRFTISKDNAKNTVNLQMNSLKPEDTAVYYCAVSRSLDEFGDGYEMDYWGDGTQVTVSS
2 | < 1 | NJT4 (VHH, labelled with Texas Red via sortase-mediated tagging in the ex vivo imaging assay) VHH: QVQLVESGGGLVQPGGSLRLSCAASGFTFSSYTMRWYRQAPGKERELVAFIGVAGGSTKYADSVKGRFTISRDNTKNTVYLQMNTLKPEDTAVYYCYAPLTPYWGQGTQVTVSS
3 | < 1 | NJT6 (VHH, labelled with Texas Red or 64Cu via sortase-mediated tagging in the imaging assays) VHH: QVQLVETGGDLVQPGGSLRLSCAASGLTLDYYAIGWVRQAPGKEREGVSCITPQDGNTYYDDSVMGRFTILRDNAKNMVYLQMNNLKPEDTAVYFCAAAGALTLDPSEYEYWGQGTQVTVSS

From patent US20230348605A1
